Data published in IntAct's records for PubMed 19229292.

Assays:
dlg3_rat Dlg3 = dlg3_rat Dlg3 (UniProt Q62936)
dlg1_rat Dlg1 = dlg1_rat Dlg1 (UniProt Q62696)
dlg2_rat Dlg2 = dlg2_rat Dlg2 (UniProt Q63622)
Sequence of dlg2_rat Dlg2 (Q63622 whole entry, looked up): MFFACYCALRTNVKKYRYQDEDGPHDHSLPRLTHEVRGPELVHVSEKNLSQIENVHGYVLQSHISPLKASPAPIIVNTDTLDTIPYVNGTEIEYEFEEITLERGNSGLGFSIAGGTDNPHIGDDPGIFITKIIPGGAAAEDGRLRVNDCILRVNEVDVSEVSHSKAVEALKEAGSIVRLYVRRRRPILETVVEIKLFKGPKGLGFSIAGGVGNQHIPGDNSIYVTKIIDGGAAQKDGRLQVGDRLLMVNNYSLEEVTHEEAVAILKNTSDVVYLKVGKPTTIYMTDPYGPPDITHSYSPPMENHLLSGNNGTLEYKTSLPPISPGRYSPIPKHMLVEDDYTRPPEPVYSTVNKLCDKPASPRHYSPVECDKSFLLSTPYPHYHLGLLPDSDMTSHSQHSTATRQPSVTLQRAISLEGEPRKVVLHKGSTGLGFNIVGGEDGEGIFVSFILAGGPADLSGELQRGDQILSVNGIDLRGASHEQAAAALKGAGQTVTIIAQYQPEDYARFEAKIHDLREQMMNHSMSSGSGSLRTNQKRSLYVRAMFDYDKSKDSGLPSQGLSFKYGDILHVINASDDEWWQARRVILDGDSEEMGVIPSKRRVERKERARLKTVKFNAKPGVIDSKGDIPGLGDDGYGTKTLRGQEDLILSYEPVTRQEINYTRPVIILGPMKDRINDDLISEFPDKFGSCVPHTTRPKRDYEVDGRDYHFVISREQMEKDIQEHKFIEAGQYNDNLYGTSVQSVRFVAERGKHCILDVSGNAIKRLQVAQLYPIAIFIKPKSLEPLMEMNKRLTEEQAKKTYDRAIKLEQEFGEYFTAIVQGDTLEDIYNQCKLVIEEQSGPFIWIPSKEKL

Sequence of dlg3_rat Dlg3 (Q62936 whole entry): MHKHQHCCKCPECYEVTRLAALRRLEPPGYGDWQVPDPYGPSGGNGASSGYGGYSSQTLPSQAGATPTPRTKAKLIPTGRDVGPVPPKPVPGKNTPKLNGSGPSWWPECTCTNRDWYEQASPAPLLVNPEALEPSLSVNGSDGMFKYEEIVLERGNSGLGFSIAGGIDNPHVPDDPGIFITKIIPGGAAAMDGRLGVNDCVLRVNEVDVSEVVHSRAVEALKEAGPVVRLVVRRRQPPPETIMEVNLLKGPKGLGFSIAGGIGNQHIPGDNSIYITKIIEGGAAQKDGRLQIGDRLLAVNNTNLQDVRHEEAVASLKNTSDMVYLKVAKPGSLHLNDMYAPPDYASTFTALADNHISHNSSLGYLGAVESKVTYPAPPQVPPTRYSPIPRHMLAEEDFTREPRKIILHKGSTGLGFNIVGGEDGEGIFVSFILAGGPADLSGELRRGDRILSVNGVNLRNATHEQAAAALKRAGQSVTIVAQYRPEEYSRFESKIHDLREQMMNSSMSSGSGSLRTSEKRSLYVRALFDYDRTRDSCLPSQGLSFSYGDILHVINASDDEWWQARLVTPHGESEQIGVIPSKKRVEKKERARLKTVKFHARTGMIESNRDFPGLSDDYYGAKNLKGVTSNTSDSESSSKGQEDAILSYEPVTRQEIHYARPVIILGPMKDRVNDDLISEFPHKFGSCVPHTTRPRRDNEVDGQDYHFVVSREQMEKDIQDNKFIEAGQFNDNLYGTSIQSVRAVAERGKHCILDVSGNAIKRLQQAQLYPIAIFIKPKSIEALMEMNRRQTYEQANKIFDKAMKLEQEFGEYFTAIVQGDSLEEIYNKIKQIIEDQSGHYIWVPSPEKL
Sequence of dlg1_rat Dlg1 (Q62696 whole entry): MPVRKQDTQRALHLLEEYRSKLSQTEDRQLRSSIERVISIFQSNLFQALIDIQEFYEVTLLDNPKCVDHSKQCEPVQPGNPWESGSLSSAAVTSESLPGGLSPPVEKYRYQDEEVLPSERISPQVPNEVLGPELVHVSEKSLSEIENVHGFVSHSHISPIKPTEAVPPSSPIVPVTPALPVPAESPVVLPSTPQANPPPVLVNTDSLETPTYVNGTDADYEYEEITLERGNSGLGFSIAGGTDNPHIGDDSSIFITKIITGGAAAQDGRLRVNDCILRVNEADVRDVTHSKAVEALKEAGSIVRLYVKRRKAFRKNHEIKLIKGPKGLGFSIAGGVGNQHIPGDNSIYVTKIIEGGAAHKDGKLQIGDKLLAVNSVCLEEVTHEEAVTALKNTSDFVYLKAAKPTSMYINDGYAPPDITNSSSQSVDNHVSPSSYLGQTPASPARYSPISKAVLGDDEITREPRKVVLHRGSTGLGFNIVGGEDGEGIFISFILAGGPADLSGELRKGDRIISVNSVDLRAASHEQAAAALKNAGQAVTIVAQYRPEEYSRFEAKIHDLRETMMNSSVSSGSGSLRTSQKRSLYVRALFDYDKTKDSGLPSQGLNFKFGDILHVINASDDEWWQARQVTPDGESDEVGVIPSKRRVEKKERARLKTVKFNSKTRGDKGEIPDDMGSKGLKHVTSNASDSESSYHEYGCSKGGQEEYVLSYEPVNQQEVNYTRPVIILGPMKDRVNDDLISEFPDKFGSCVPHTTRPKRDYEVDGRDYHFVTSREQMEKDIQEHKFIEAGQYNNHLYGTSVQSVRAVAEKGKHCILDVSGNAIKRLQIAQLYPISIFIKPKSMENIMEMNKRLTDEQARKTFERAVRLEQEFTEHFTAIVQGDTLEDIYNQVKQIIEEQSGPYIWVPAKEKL

effect of a mutation on the interaction (dlg3_rat Dlg3): disrupting interaction | effect of a mutation on the interaction (dlg1_rat Dlg1): disrupting interaction | effect of a mutation on the interaction (dlg2_rat Dlg2): disrupting interaction
Substance: Diacylglycerol kinase zeta (Rattus norvegicus (Rat)), O08560 V929A
